Target: thrombin
Assay: cell-based or functional assay

Row | Secondary rate constant (+ hep): thrombin inhibition secondary rate constant in the presence of heparin [M⁻¹ s⁻¹] | Secondary rate constant (- hep): thrombin inhibition secondary rate constant in the absence of heparin [M⁻¹ s⁻¹] | Substance
1 | 8.7e+06 | 7700 | ATIII DG44 peak (1) fraction (recombinant human antithrombin III produced by the CHO/DG44 transformant pKAN-ATIII AFDG44, heparin-affinity peak (1)) (from UniProt P01008 33-464)
2 | 2.6e+07 | 8800 | ATIII MS705 peak (3) fraction (recombinant human antithrombin III produced by the FUT8 gene-double-knockout CHO/DG44 transformant pKAN-ATIII AFMS705, heparin-affinity peak (3)) (from UniProt P01008 33-464)

Second part, the substance before the results:

Row | Substance | Secondary rate constant (+ hep): thrombin inhibition secondary rate constant in the presence of heparin [M⁻¹ s⁻¹] | Secondary rate constant (- hep): thrombin inhibition secondary rate constant in the absence of heparin [M⁻¹ s⁻¹]
3 | ATIII DG44 peak (2) fraction (recombinant human antithrombin III produced by the CHO/DG44 transformant pKAN-ATIII AFDG44, heparin-affinity peak (2)) (from UniProt P01008 33-464) | 2e+07 | 8600
4 | ATIII MS705 peak (2) fraction (recombinant human antithrombin III produced by the FUT8 gene-double-knockout CHO/DG44 transformant pKAN-ATIII AFMS705, heparin-affinity peak (2)) (from UniProt P01008 33-464) | 2.5e+07 | 
5 | Neuart (human plasma-derived antithrombin III preparation, manufactured by Mitsubishi Pharma Corporation) (from UniProt P01008 33-464) | 2.3e+07 | 8200
